Source: article PMC8541144, “Synthesis, Characterization and In Vitro Evaluation of Hybrid Monomeric Peptides Suited for Multimodal Imaging by PET/OI: Extending the Concept of Charge—Cell Binding Correlation” (Pharmaceuticals, 2021)
Where two headings read alike, the source gives them in different places.

Experiments:
[1] = LogD determination: partition between 1-octanol and phosphate buffer pH 7.4
Description: In the following, the lipophilicity of the labeled conjugates was investigated to get a first idea of the potential excretion pathway of the agents during an in vivo application. The logD values were determined by partition experiments between n-octanol and aqueous solution at pH 7.4.
The mixtures were intensively shaken for 5 min on a vibrating plate. After subsequent centrifugation at 13,000 rpm for 5 min, 125 µL were taken from each phase and measured in a γ-counter. The logD values were calculated from three or four independent experiments, each performed in triplicate.

[2] = Photophysical properties (absorbance and emission measurements); type: physicochemical; details: PBS, 1 × 10^−5 mol × L^−1
Description: Following the synthesis of the target compounds, their photophysical properties were determined. Here, a possible negative influence of the conjugation of the different MIUs to the corresponding peptidic structures on the absorbance coefficients, or the absorption or emission wavelengths should be ruled out. In Table 2, the results of these evaluations are reported for the MIU-peptide-bioconjugates 7 a-c, 8 a-c and 9 a-c as well as for the MIUs 7-9. As expected, no significant loss or shift of fluorescence properties of the final compounds compared to their imaging units before conjugation was observed. This is in line with the earlier observation for PESIN homodimer-MIU-conjugates where an influence of dye or MIU bioconjugation on fluorescence quantum yields and other photophysical properties could be ruled out.
For HPLC chromatography, a Dionex UltiMate 3000 system was used together with Chromeleon Software (Version 6.80). For semipreparative analyses, a Chromolith (RP-18e, 100–10 mm, Merck, Germany) column was used. For radioanalytical use, a Dionex UltiMate 3000 system equipped with a Raytest GABI Star radioactivity detector was used together with a Chromolith Performance (RP-18e, 100–4.6 mm, Merck, Germany) column. All operations were performed with a flow rate of 4 mL/min using H2O + 0.1% TFA and MeCN + 0.1% TFA as solvents. HR-ESI (high-resolution Electrospray Ionization) and MALDI (Matrix-Assisted Laser Desorption/Ionization) spectra were obtained with Finnigan MAT95Q and Bruker Daltronics Microflex spectrometers, respectively. γ-counting was performed using a 2480 Wizard gamma counter system from Perkin Elmer (Rodgau, Germany). For absorbance and emission measurements, a Tecan Infinite M200 Microplate reader together with a Nunc Micro-Well 96 solid plate from ThermoFisher (Dreieich, Germany) was used. Confocal fluorescence microscopy was performed on a Leica TCS SP8 confocal microscope with lasers at λ = 405, 488, 552 and 638 nm. Overlays of microscopies were generated directly with the operating software or afterwards using FIJI software (V1.50e).

[3] = design: method as in PMID 32618007, PMID 32948032; details: MIUs; mean ± SD; ref [20],[21]; cited from earlier work
[4] = design: method as in PMID 32618007, PMID 32948032; details: ref [20],[21], cited from earlier work

In the case of CSCC[C@H](NC(=O)[C@H](CC(C)C)NC(=O)[C@H](Cc1c[nH]cn1)NC(=O)CNC(=O)[C@@H](NC(=O)[C@H](C)NC(=O)[C@H](Cc1c[nH]c2ccccc12)NC(=O)[C@H](CCC(N)=O)NC(=O)CCOCCOCCOCCOCCNC(=O)CCCN1C(=O)CC(SC[C@H](NC(=O)[C@H](CCCC[n+]2c(C)cc(/C=C/c3ccc(N(C)C)cc3)cc2C)NC(=O)CC[C@H](C(=O)O)N2CCN(CC(=O)O)CCN(CC(=O)O)CC2)C(N)=O)C1=O)C(C)C)C(N)=O (stereo partly drawn) [7 a, BBN7-14-pyrylium-NODA-GA], the logD [1] is reported as -2.38 ± 0.02.

For CCCC[C@H](NC(=O)CCOCCOCCOCCOCCNC(=O)CCCN1C(=O)CC(SC[C@H](NC(=O)[C@H](CCCC[n+]2c(C)cc(/C=C/c3ccc(N(C)C)cc3)cc2C)NC(=O)CC[C@H](C(=O)O)N2CCN(CC(=O)O)CCN(CC(=O)O)CC2)C(N)=O)C1=O)C(=O)N[C@H]1CC(=O)NCCCC[C@@H](C(N)=O)NC(=O)[C@H](Cc2c[nH]c3ccccc23)NC(=O)[C@H](CCCNC(=N)N)NC(=O)[C@@H](Cc2ccccc2)NC(=O)[C@H](Cc2c[nH]cn2)NC1=O (stereo partly drawn) [7 b, Nle-c(DHfRWK)-pyrylium-NODA-GA], the logD [1] was -2.03 ± 0.06.

Cc1cc(/C=C/c2ccc(N(C)C)cc2)cc(C)[n+]1CCCC[C@H](NC(=O)CC[C@H](C(=O)O)N1CCN(CC(=O)O)CCN(CC(=O)O)CC1)C(=O)N[C@@H](CSC1CC(=O)N(CCCC(=O)NCCOCCOCCOCCOCCC(=O)NCCCC[C@@H]2NC(=O)[C@@H](Cc3ccccc3)NC(=O)[C@H](CC(=O)O)NC(=O)CNC(=O)[C@H](CCCNC(=N)N)NC2=O)C1=O)C(N)=O (stereo partly drawn) [7 c, c(RGDfK)-pyrylium-NODA-GA] gave a logD [1] of -2.51 ± 0.09.

CSCC[C@H](NC(=O)[C@H](CC(C)C)NC(=O)[C@H](Cc1c[nH]cn1)NC(=O)CNC(=O)[C@@H](NC(=O)[C@H](C)NC(=O)[C@H](Cc1c[nH]c2ccccc12)NC(=O)[C@H](CCC(N)=O)NC(=O)CCOCCOCCOCCOCCNC(=O)CCCN1C(=O)CC(SC[C@H](NC(=O)[C@H](CCCCNS(=O)(=O)c2cccc3c(N(C)C)cccc23)NC(=O)CC[C@H](C(=O)O)N2CCN(CC(=O)O)CCN(CC(=O)O)CC2)C(N)=O)C1=O)C(C)C)C(N)=O (stereo partly drawn) [8 a, BBN7-14-dansyl-NODA-GA] showed a logD [1] of -1.44 ± 0.01.

CCCC[C@H](NC(=O)CCOCCOCCOCCOCCNC(=O)CCCN1C(=O)CC(SC[C@H](NC(=O)[C@H](CCCCNS(=O)(=O)c2cccc3c(N(C)C)cccc23)NC(=O)CC[C@H](C(=O)O)N2CCN(CC(=O)O)CCN(CC(=O)O)CC2)C(N)=O)C1=O)C(=O)N[C@H]1CC(=O)NCCCC[C@@H](C(N)=O)NC(=O)[C@H](Cc2c[nH]c3ccccc23)NC(=O)[C@H](CCCNC(=N)N)NC(=O)[C@@H](Cc2ccccc2)NC(=O)[C@H](Cc2c[nH]cn2)NC1=O (stereo partly drawn) [8 b, Nle-c(DHfRWK)-dansyl-NODA-GA] showed a logD [1] of -1.66 ± 0.03.

In the case of CN(C)c1cccc2c(S(=O)(=O)NCCCC[C@H](NC(=O)CC[C@H](C(=O)O)N3CCN(CC(=O)O)CCN(CC(=O)O)CC3)C(=O)N[C@@H](CSC3CC(=O)N(CCCC(=O)NCCOCCOCCOCCOCCC(=O)NCCCC[C@@H]4NC(=O)[C@@H](Cc5ccccc5)NC(=O)[C@H](CC(=O)O)NC(=O)CNC(=O)[C@H](CCCNC(=N)N)NC4=O)C3=O)C(N)=O)cccc12 (stereo partly drawn) [8 c, c(RGDfK)-dansyl-NODA-GA], the logD [1] is reported as -2.17 ± 0.14.

In the case of CSCC[C@H](NC(=O)[C@H](CC(C)C)NC(=O)[C@H](Cc1c[nH]cn1)NC(=O)CNC(=O)[C@@H](NC(=O)[C@H](C)NC(=O)[C@H](Cc1c[nH]c2ccccc12)NC(=O)[C@H](CCC(N)=O)NC(=O)CCOCCOCCOCCOCCNC(=O)CCCN1C(=O)CC(SC[C@H](NC(=O)[C@H](CCCCNC(=O)c2ccc(C3=C(/C=C/C4=[N+](CCCCS(=O)(=O)[O-])c5ccc6ccccc6c5C4(C)C)CCC/C3=C\C=C3\N(CCCCS(=O)(=O)O)c4ccc5ccccc5c4C3(C)C)cc2)NC(=O)CC[C@H](C(=O)O)N2CCN(CC(=O)O)CCN(CC(=O)O)CC2)C(N)=O)C1=O)C(C)C)C(N)=O (stereo partly drawn) [9 a, BBN7-14-cyanine-NODA-GA], the logD [1] is reported as -1.45 ± 0.06, the “λmax(abs)” value [2] is reported as 724/800 and the “Stokes Shift” value ([2]; λex = 650 nm) is reported as 9 nm. The “λmax(em)” value ([2]; λex = 650 nm) was 809 nm.

In the case of CCCC[C@H](NC(=O)CCOCCOCCOCCOCCNC(=O)CCCN1C(=O)CC(SC[C@H](NC(=O)[C@H](CCCCNC(=O)c2ccc(C3=C(/C=C/C4=[N+](CCCCS(=O)(=O)O)c5ccc6ccccc6c5C4(C)C)CCC/C3=C\C=C3\N(CCCCS(=O)(=O)[O-])c4ccc5ccccc5c4C3(C)C)cc2)NC(=O)CC[C@H](C(=O)O)N2CCN(CC(=O)O)CCN(CC(=O)O)CC2)C(N)=O)C1=O)C(=O)N[C@H]1CC(=O)NCCCC[C@@H](C(N)=O)NC(=O)[C@H](Cc2c[nH]c3ccccc23)NC(=O)[C@H](CCCNC(=N)N)NC(=O)[C@@H](Cc2ccccc2)NC(=O)[C@H](Cc2c[nH]cn2)NC1=O (stereo partly drawn) [9 b, Nle-c(DHfRWK)-cyanine-NODA-GA], the logD [1] is reported as -1.42 ± 0.13.

For CC1(C)C(/C=C/C2=C(c3ccc(C(=O)NCCCC[C@H](NC(=O)CC[C@H](C(=O)O)N4CCN(CC(=O)O)CCN(CC(=O)O)CC4)C(=O)N[C@@H](CSC4CC(=O)N(CCCC(=O)NCCOCCOCCOCCOCCC(=O)NCCCC[C@@H]5NC(=O)[C@@H](Cc6ccccc6)NC(=O)[C@H](CC(=O)O)NC(=O)CNC(=O)[C@H](CCCNC(=N)N)NC5=O)C4=O)C(N)=O)cc3)C(=C/C=C3/N(CCCCS(=O)(=O)[O-])c4ccc5ccccc5c4C3(C)C)/CCC2)=[N+](CCCCS(=O)(=O)O)c2ccc3ccccc3c21 (stereo partly drawn) [9 c, c(RGDfK)-cyanine-NODA-GA], the logD [1] was -1.97 ± 0.18.

N=C(N)NCCC[C@@H]1NC(=O)[C@H](CCCCNC(=O)CCOCCOCCOCCOCCNC(=O)CCCN2C(=O)CC(SC[C@H](NC(=O)CNC(=O)CC[C@H](C(=O)O)N3CCN(CC(=O)O)CCN(CC(=O)O)CC3)C(N)=O)C2=O)NC(=O)[C@@H](Cc2ccccc2)NC(=O)[C@H](CC(=O)O)NC(=O)CNC1=O (stereo partly drawn) [10 c, c(RGDfK)-NODA-GA] showed a logD [1] of -4.06 ± 0.1.

In the case of Cc1cc(/C=C/c2ccc(N(C)C)cc2)cc(C)[n+]1CCCC[C@H](NC(=O)CC[C@H](C(=O)O)N1CCN(CC(=O)O)CCN(CC(=O)O)CC1)C(=O)N[C@@H](CS)C(N)=O [Compound 7], the logD [3] is listed as −2.04 ± 0.11, the “Stokes Shift” value ([4]; MIU, λex = 400 nm) is listed as 160 nm and the “log ε” value ([4]; MIUs) is listed as 4.16 M^−1cm^−1. The “λmax(abs)” value ([4]; MIUs) was 440 nm and the “λmax(em)” value ([4]; MIUs, λex = 400 nm) was 600 nm.

For CN(C)c1cccc2c(S(=O)(=O)NCCCC[C@H](NC(=O)CC[C@H](C(=O)O)N3CCN(CC(=O)O)CCN(CC(=O)O)CC3)C(=O)N[C@@H](CS)C(N)=O)cccc12 [Compound 8, thio-dansyl-NODA-GA], the logD [3] is listed as −1.39 ± 0.04 and the “λmax(em)” value ([4]; MIUs, λex = 400 nm) is listed as 550 nm.

In the case of CC1(C)C(/C=C/C2=C(c3ccc(C(=O)NCCCC[C@H](NC(=O)CC[C@H](C(=O)O)N4CCN(CC(=O)O)CCN(CC(=O)O)CC4)C(=O)N[C@@H](CS)C(N)=O)cc3)C(=C/C=C3/N(CCCCS(=O)(=O)[O-])c4ccc5ccccc5c4C3(C)C)/CCC2)=[N+](CCCCS(=O)(=O)O)c2ccc3ccccc3c21 [Compound 9, thio-cyanine-NODA-GA], the logD [3] is given as −1.29 ± 0.11, the “Stokes Shift” value ([4]; MIU, λex = 650 nm) is given as 10 nm and the “λmax(em)” value ([4]; MIU, λex = 650 nm) is given as 800 nm. The “λmax(abs)” value ([4]; MIUs) was 720/790.

In the case of NC(=O)[C@H](CS)NC(=O)CNC(=O)CC[C@H](C(=O)O)N1CCN(CC(=O)O)CCN(CC(=O)O)CC1 [Compound 10, thio-NODA-GA], the logD [3] is given as −3.35 ± 0.15.

With CSCC[C@H](NC(=O)[C@H](CC(C)C)NC(=O)[C@H](Cc1c[nH]cn1)NC(=O)CNC(=O)[C@@H](NC(=O)[C@H](C)NC(=O)[C@H](Cc1c[nH]c2ccccc12)NC(=O)[C@H](CCC(N)=O)NC(=O)CCOCCOCCOCCOCCNC(=O)CCCN1C(=O)CC(SC[C@H](NC(=O)CNC(=O)CC[C@H](C(=O)O)N2CCN(CC(=O)O)CCN(CC(=O)O)CC2)C(N)=O)C1=O)C(C)C)C(N)=O (stereo partly drawn) [[^68Ga]Ga-10 a, metal not drawn] the logD [1] was -3.78 ± 0.04.

Work on CCCC[C@H](NC(=O)CCOCCOCCOCCOCCNC(=O)CCCN1C(=O)CC(SC[C@H](NC(=O)CNC(=O)CC[C@H](C(=O)O)N2CCN(CC(=O)O)CCN(CC(=O)O)CC2)C(N)=O)C1=O)C(=O)N[C@H]1CC(=O)NCCCC[C@@H](C(N)=O)NC(=O)[C@H](Cc2c[nH]c3ccccc23)NC(=O)[C@H](CCCNC(=N)N)NC(=O)[C@@H](Cc2ccccc2)NC(=O)[C@H](Cc2c[nH]cn2)NC1=O (stereo partly drawn) [[^68Ga]Ga-10 b, metal not drawn] yielded a logD [1] of -3.36 ± 0.02.
